Test results from US20260209293A1 (Novo Nordisk, published 2026).
*1 amine or outer side, *2 acyl side, *3 side chain or, on linkers, in order; H or OH if unused. The star is where a group is joined. C18 diacid = O=C(O)CCCCCCCCCCCCCCCCC(=O)*; γGlu = O=C(O)[C@H](CCC(=O)[*:2])N[*:1]

T1: human amylin-3(a) receptor (human, UniProt P30988 25-474; O60896 24-148)
T1 sequence (looked up) 1: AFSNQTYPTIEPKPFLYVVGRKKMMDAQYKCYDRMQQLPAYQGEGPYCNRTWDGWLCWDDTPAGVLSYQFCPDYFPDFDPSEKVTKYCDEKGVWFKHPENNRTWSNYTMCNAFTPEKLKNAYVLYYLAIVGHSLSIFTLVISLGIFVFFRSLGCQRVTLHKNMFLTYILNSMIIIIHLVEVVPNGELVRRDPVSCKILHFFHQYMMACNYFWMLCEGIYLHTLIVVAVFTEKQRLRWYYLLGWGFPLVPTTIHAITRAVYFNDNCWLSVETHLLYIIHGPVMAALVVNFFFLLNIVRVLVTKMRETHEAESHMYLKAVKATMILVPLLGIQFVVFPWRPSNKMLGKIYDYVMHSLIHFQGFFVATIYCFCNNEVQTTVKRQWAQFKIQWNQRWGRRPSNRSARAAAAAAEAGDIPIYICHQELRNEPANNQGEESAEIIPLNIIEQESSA
T1 sequence (looked up) 2: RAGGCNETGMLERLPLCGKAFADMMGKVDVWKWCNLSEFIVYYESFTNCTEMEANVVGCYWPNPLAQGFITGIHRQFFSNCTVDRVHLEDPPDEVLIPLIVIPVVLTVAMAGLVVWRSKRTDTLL

T2: human calcitonin receptor (a) (human, UniProt P30988 25-474)
T2 sequence (looked up): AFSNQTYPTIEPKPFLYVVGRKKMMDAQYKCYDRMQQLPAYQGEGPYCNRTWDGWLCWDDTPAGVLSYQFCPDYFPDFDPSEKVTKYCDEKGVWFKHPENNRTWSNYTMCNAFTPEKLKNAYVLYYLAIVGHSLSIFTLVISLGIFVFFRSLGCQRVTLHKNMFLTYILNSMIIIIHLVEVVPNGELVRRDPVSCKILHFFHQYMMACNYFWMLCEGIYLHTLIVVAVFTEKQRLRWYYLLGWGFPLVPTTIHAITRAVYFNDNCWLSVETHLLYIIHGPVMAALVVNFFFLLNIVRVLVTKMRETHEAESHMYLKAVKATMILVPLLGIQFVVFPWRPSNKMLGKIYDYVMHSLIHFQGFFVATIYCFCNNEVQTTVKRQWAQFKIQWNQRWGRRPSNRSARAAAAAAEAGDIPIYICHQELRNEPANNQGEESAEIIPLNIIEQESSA


Tests used:
[1] = biological target: T1, human amylin-3(a) receptor; experiment: cell-based or functional assay
[2] = biological target: T2, human calcitonin receptor (a); experiment: cell-based or functional assay

| hAmyR3 potency, EC50 (pM); CRE-luciferase reporter in BHK cells [1] | hCalcR potency, EC50 (pM); CRE-luciferase reporter in BHK cells [2] | Binder |
| --- | --- | --- |
| 1.27 pM | 1.5 pM | {C18 diacid-γGlu}-ASHLSTAQTARLAEFLHHSSDPFGAIPSSTDVGPDTP-NH2 (SMILES CC[C@H](C)[C@H](NC(=O)[C@H](C)NC(=O)CNC(=O)[C@H](Cc1ccccc1)NC(=O)[C@@H]1CCCN1C(=O)[C@H](CC(=O)O)NC(=O)[C@H](CO)NC(=O)[C@H](CO)NC(=O)[C@H](Cc1c[nH]cn1)NC(=O)[C@H](Cc1c[nH]cn1)NC(=O)[C@H](CC(C)C)NC(=O)[C@H](Cc1ccccc1)NC(=O)[C@H](CCC(=O)O)NC(=O)[C@H](C)NC(=O)[C@H](CC(C)C)NC(=O)[C@H](CCCNC(=N)N)NC(=O)[C@H](C)NC(=O)[C@@H](NC(=O)[C@H](CCC(N)=O)NC(=O)[C@H](C)NC(=O)[C@@H](NC(=O)[C@H](CO)NC(=O)[C@H](CC(C)C)NC(=O)[C@H](Cc1c[nH]cn1)NC(=O)[C@H](CO)NC(=O)[C@H](C)NC(=O)CC[C@H](NC(=O)CCCCCCCCCCCCCCCCC(=O)O)C(=O)O)[C@@H](C)O)[C@@H](C)O)C(=O)N1CCC[C@H]1C(=O)N[C@@H](CO)C(=O)N[C@@H](CO)C(=O)N[C@H](C(=O)N[C@@H](CC(=O)O)C(=O)N[C@H](C(=O)NCC(=O)N1CCC[C@H]1C(=O)N[C@@H](CC(=O)O)C(=O)N[C@H](C(=O)N1CCC[C@H]1C(N)=O)[C@@H](C)O)C(C)C)[C@@H](C)O) |
| 1.22 pM | 1.86 pM | {C18 diacid-γGlu}-ASQLSTAQTARLAEFLHHSSDNFGPILPPTDVGSNTP-NH2 (SMILES CC[C@H](C)[C@H](NC(=O)[C@@H]1CCCN1C(=O)CNC(=O)[C@H](Cc1ccccc1)NC(=O)[C@H](CC(N)=O)NC(=O)[C@H](CC(=O)O)NC(=O)[C@H](CO)NC(=O)[C@H](CO)NC(=O)[C@H](Cc1c[nH]cn1)NC(=O)[C@H](Cc1c[nH]cn1)NC(=O)[C@H](CC(C)C)NC(=O)[C@H](Cc1ccccc1)NC(=O)[C@H](CCC(=O)O)NC(=O)[C@H](C)NC(=O)[C@H](CC(C)C)NC(=O)[C@H](CCCNC(=N)N)NC(=O)[C@H](C)NC(=O)[C@@H](NC(=O)[C@H](CCC(N)=O)NC(=O)[C@H](C)NC(=O)[C@@H](NC(=O)[C@H](CO)NC(=O)[C@H](CC(C)C)NC(=O)[C@H](CCC(N)=O)NC(=O)[C@H](CO)NC(=O)[C@H](C)NC(=O)CC[C@H](NC(=O)CCCCCCCCCCCCCCCCC(=O)O)C(=O)O)[C@@H](C)O)[C@@H](C)O)C(=O)N[C@@H](CC(C)C)C(=O)N1CCC[C@H]1C(=O)N1CCC[C@H]1C(=O)N[C@H](C(=O)N[C@@H](CC(=O)O)C(=O)N[C@H](C(=O)NCC(=O)N[C@@H](CO)C(=O)N[C@@H](CC(N)=O)C(=O)N[C@H](C(=O)N1CCC[C@H]1C(N)=O)[C@@H](C)O)C(C)C)[C@@H](C)O) |

Further lines, the binder ahead of its results:

| Binder | hAmyR3 potency, EC50 (pM); CRE-luciferase reporter in BHK cells [1] | hCalcR potency, EC50 (pM); CRE-luciferase reporter in BHK cells [2] |
| --- | --- | --- |
| {C18 diacid-γGlu}-ASALSTAQTARLAEFLHHSSDNFGPILPPTDVGSNTP-NH2 (SMILES CC[C@H](C)[C@H](NC(=O)[C@@H]1CCCN1C(=O)CNC(=O)[C@H](Cc1ccccc1)NC(=O)[C@H](CC(N)=O)NC(=O)[C@H](CC(=O)O)NC(=O)[C@H](CO)NC(=O)[C@H](CO)NC(=O)[C@H](Cc1c[nH]cn1)NC(=O)[C@H](Cc1c[nH]cn1)NC(=O)[C@H](CC(C)C)NC(=O)[C@H](Cc1ccccc1)NC(=O)[C@H](CCC(=O)O)NC(=O)[C@H](C)NC(=O)[C@H](CC(C)C)NC(=O)[C@H](CCCNC(=N)N)NC(=O)[C@H](C)NC(=O)[C@@H](NC(=O)[C@H](CCC(N)=O)NC(=O)[C@H](C)NC(=O)[C@@H](NC(=O)[C@H](CO)NC(=O)[C@H](CC(C)C)NC(=O)[C@H](C)NC(=O)[C@H](CO)NC(=O)[C@H](C)NC(=O)CC[C@H](NC(=O)CCCCCCCCCCCCCCCCC(=O)O)C(=O)O)[C@@H](C)O)[C@@H](C)O)C(=O)N[C@@H](CC(C)C)C(=O)N1CCC[C@H]1C(=O)N1CCC[C@H]1C(=O)N[C@H](C(=O)N[C@@H](CC(=O)O)C(=O)N[C@H](C(=O)NCC(=O)N[C@@H](CO)C(=O)N[C@@H](CC(N)=O)C(=O)N[C@H](C(=O)N1CCC[C@H]1C(N)=O)[C@@H](C)O)C(C)C)[C@@H](C)O) | 1.62 pM | 1.58 pM |
| {C18 diacid-γGlu}-ASHLSTAQTQRLAEFLHHSSDPFGAIPSSTDVGPNTP-NH2 (SMILES CC[C@H](C)[C@H](NC(=O)[C@H](C)NC(=O)CNC(=O)[C@H](Cc1ccccc1)NC(=O)[C@@H]1CCCN1C(=O)[C@H](CC(=O)O)NC(=O)[C@H](CO)NC(=O)[C@H](CO)NC(=O)[C@H](Cc1c[nH]cn1)NC(=O)[C@H](Cc1c[nH]cn1)NC(=O)[C@H](CC(C)C)NC(=O)[C@H](Cc1ccccc1)NC(=O)[C@H](CCC(=O)O)NC(=O)[C@H](C)NC(=O)[C@H](CC(C)C)NC(=O)[C@H](CCCNC(=N)N)NC(=O)[C@H](CCC(N)=O)NC(=O)[C@@H](NC(=O)[C@H](CCC(N)=O)NC(=O)[C@H](C)NC(=O)[C@@H](NC(=O)[C@H](CO)NC(=O)[C@H](CC(C)C)NC(=O)[C@H](Cc1c[nH]cn1)NC(=O)[C@H](CO)NC(=O)[C@H](C)NC(=O)CC[C@H](NC(=O)CCCCCCCCCCCCCCCCC(=O)O)C(=O)O)[C@@H](C)O)[C@@H](C)O)C(=O)N1CCC[C@H]1C(=O)N[C@@H](CO)C(=O)N[C@@H](CO)C(=O)N[C@H](C(=O)N[C@@H](CC(=O)O)C(=O)N[C@H](C(=O)NCC(=O)N1CCC[C@H]1C(=O)N[C@@H](CC(N)=O)C(=O)N[C@H](C(=O)N1CCC[C@H]1C(N)=O)[C@@H](C)O)C(C)C)[C@@H](C)O) | 1.31 pM | 2.19 pM |
| {C18 diacid-γGlu}-ASQLSTAQTQRLAEFLHHSSDPFGAIPSSTDVGPDTP-NH2 (SMILES CC[C@H](C)[C@H](NC(=O)[C@H](C)NC(=O)CNC(=O)[C@H](Cc1ccccc1)NC(=O)[C@@H]1CCCN1C(=O)[C@H](CC(=O)O)NC(=O)[C@H](CO)NC(=O)[C@H](CO)NC(=O)[C@H](Cc1c[nH]cn1)NC(=O)[C@H](Cc1c[nH]cn1)NC(=O)[C@H](CC(C)C)NC(=O)[C@H](Cc1ccccc1)NC(=O)[C@H](CCC(=O)O)NC(=O)[C@H](C)NC(=O)[C@H](CC(C)C)NC(=O)[C@H](CCCNC(=N)N)NC(=O)[C@H](CCC(N)=O)NC(=O)[C@@H](NC(=O)[C@H](CCC(N)=O)NC(=O)[C@H](C)NC(=O)[C@@H](NC(=O)[C@H](CO)NC(=O)[C@H](CC(C)C)NC(=O)[C@H](CCC(N)=O)NC(=O)[C@H](CO)NC(=O)[C@H](C)NC(=O)CC[C@H](NC(=O)CCCCCCCCCCCCCCCCC(=O)O)C(=O)O)[C@@H](C)O)[C@@H](C)O)C(=O)N1CCC[C@H]1C(=O)N[C@@H](CO)C(=O)N[C@@H](CO)C(=O)N[C@H](C(=O)N[C@@H](CC(=O)O)C(=O)N[C@H](C(=O)NCC(=O)N1CCC[C@H]1C(=O)N[C@@H](CC(=O)O)C(=O)N[C@H](C(=O)N1CCC[C@H]1C(N)=O)[C@@H](C)O)C(C)C)[C@@H](C)O) | 1.49 pM | 1.56 pM |
